Assay results as given in patent publication US20150125444A1 (AstraZeneca / MedImmune, published 2015).
Residue numbers refer to the chain shown, from its start. Blank lines part the entries; values can stand above or below the binder they belong to.

Legend:
[1] = target: Human FcRn (extracellular domain) (human, UniProt P55899 24-297); test: SPR (ProteOn XPR36), antibody immobilised, steady state, pH 6.0
Procedure: (§1) Experiments were performed using the ProteOn XPR36 surface plasmon resonance system (Bio Rad). Phosphate buffered saline with 0.005% Tween 20 (PBS/Tween), pH 7.4 was used as running buffer for most experiments with the exception of Human FcRn (extracellular domain) binding in which Phosphate buffered saline with 0.005% Tween 20 (PBS/Tween), pH 6.0 was used. All experiments were performed at 25° C. Antibodies were immobilized on a ProteOn™ GLC Sensor Chip (#176-5011) using EDAC (1-Ethyl-3-[3-dimethylaminopropyl]carbodiimide) and sulfo-NHS (N-hydroxysulfosuccinimide) to an R.U. (response unit) level of 4000-6000. C1q, FcγRI, FcγRIIa, FcγRIIb, FcγRIII(158V), FcγRIII(158F), and FcRn were then flowed over the IgG immobilized surface at various concentrations at a rate of 25 μl/minute for a long enough period of time to achieve steady state, or near steady state. Binding (if any could be determined) was quantified via steady state equilibrium binding analysis using the ProteOn software. Human FcγRI, FcγRIIa, FcγRIIb, FcγRIII(158V), FcγRIII(158F), and FcRn extracellular domains were generated via mammalian expression vectors in house. Human C1q was obtained from Quidel (CA).

[2] = target: T1, Human FcγRIIIa (158V) extracellular domain (human, UniProt P08637 17-208); test: SPR (ProteOn XPR36), antibody immobilised, steady state, pH 7.4
T1 construct: extracellular domain; Position 158 is the usual allotype numbering (mature protein), not the precursor numbering of the database entry; also called FcγRIII(158V)
T1 sequence (P08637 17-208 F176V): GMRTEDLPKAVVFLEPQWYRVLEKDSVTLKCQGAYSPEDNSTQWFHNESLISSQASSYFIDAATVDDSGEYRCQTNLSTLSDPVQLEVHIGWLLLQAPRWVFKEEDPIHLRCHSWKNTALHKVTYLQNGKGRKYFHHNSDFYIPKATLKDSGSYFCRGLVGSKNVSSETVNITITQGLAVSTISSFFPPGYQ
Procedure: as §1

[3] = target: T2, Human FcγRIIIa (158F) extracellular domain (human, UniProt P08637 17-208); test: as above
T2 construct: extracellular domain; also called FcγRIII(158F)
T2 sequence (P08637 17-208): as the sequence (P08637 17-208 F176V) above, with V160F counted along it
Procedure: as §1

[4] = target: T3, Human FcγRIIa extracellular domain (human, UniProt P12318 34-217); test: as above
T3 construct: extracellular domain
T3 sequence (looked up): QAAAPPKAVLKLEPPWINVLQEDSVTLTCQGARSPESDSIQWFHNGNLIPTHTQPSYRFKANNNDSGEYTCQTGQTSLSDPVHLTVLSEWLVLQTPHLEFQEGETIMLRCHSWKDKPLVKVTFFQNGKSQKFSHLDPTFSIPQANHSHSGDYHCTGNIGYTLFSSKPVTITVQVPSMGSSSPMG
Procedure: as §1

[5] = target: T4, Human FcγRIIb extracellular domain (human, UniProt P31994 43-217); test: as above
T4 construct: extracellular domain
T4 sequence (looked up): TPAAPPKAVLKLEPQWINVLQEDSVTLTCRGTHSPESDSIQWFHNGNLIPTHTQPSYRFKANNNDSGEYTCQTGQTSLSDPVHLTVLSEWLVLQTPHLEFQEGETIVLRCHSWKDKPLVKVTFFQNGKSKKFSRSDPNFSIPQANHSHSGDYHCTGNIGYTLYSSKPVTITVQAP
Procedure: as §1

[6] = target: T5, Human FcγRIa extracellular domain (human, UniProt P12314 16-292); test: as above
T5 construct: extracellular domain
T5 sequence (P12314 16-292): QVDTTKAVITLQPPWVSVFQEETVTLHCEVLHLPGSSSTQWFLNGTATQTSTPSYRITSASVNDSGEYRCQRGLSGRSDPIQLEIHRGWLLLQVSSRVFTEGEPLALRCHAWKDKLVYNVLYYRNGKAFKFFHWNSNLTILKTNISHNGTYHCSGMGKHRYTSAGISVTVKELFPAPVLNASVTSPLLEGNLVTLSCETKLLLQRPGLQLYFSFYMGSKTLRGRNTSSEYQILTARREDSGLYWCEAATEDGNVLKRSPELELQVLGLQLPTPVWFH
Procedure: as §1

Human C1q = target: T6, Human C1q (human, UniProt P02745 23-245; P02746 28-253; P02747 29-245); test: as above
T6 construct: Bought complement protein; In the CDC assay C1q came with human serum
T6 sequence (P02745 23-245 limits assumed, chain 1 of 3): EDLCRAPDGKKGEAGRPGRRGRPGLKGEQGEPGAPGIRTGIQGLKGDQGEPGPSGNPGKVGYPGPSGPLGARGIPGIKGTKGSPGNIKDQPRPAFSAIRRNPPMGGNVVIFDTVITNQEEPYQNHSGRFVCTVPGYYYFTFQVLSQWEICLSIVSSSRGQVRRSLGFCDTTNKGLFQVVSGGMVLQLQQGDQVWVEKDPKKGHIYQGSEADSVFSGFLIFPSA
T6 sequence (P02746 28-253 limits assumed, chain 2 of 3): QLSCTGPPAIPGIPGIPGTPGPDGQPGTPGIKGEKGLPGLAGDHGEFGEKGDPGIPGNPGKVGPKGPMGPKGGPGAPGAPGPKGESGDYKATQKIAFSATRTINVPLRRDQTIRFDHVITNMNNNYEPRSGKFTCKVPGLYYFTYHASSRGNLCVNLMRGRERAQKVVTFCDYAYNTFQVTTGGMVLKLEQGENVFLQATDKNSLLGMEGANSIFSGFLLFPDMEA
T6 sequence (P02747 29-245 limits assumed, chain 3 of 3): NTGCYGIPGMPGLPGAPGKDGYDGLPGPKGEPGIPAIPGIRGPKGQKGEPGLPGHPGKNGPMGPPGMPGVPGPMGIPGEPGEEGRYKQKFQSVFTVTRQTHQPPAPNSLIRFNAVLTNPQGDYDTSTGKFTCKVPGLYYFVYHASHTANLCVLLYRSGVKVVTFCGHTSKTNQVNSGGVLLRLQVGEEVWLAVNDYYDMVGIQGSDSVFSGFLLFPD
Procedure: as §1

Human FcRn (extracellular domain), sequence (P55899 24-297): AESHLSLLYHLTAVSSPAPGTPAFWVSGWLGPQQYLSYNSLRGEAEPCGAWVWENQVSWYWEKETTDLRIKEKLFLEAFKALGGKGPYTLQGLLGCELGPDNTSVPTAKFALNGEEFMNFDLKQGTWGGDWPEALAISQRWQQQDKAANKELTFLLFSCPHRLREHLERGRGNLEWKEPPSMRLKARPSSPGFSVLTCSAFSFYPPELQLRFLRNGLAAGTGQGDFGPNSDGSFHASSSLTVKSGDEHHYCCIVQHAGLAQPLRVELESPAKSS

B1: Ab3 (anti-CD20 antibody HB20.3) with wild-type IgG1 Fc domain (antibody)
heavy: not shown
light: DIQMTQSPASLSASVGETVTITCRASGNIHNYLAWYQQKQGKSPQLLVYNAKTLADGVPSRFSGSGSGTQFSLKINSLQPEDFGSYYCQHFWSTPWTFGGGTKLEIKRTVAAPSVFIFPPSDEQLKSGTASVVCLLNNFYPREAKVQWKVDNALQSGNSQESVTEQDSKDSTYSLSSTLTLSKADYEKHKVYACEVTHQGLSSPVTKSFNRGEC
notes: Full human IgG1 kappa antibody; also called Ab3 WT; WT
- Kd [1]: 670 nM
- Kd [2]: 900 nM
- Kd [3]: 4700 nM
- Kd [4]: 1200 nM
- Kd [5]: 6000 nM
- Kd [6]: 78 nM
- Kd (Human C1q): 103 nM

B3: Ab4 (anti-C5a antibody 1B8) with wild-type IgG1 Fc domain (antibody)
heavy: not shown
light: QSALTQPPSASGTPGQRVTISCSGTNSNIGSNYVFWYQQLPGTAPKLLIFESNRRPSGVPDRFSGSKSDTSASLAISGLRSEDEADYYCATWDDTLIAPVFGSGTKVTVLGQPKANPTVTLFPPSSEELQANKATLVCLISDFYPGAVTVAWKADSSPVKAGVETTTPSKQSNNKYAASSYLSLTPEQWKSHRSYSCQVTHEGSTVEKTVAPAEC
notes: Full human IgG1 lambda antibody; also called Ab4 WT; WT
- Kd [1]: 1070 nM
- Kd [2]: 380 nM
- Kd [3]: 1600 nM
- Kd [4]: 1000 nM
- Kd [5]: 2500 nM
- Kd [6]: 31 nM
- Kd (Human C1q): 250 nM

B4: Ab4 (anti-C5a antibody 1B8) with FQG-YTE variant IgG1 Fc domain (antibody)
heavy: EVQLLESGGGLVQPGGSLRLSCAASGFTFSSYVMNWVRQAPGKGLEWVSSISPSGGRTWYADSVKGRFTISRDNSKNTLYLQMNSLRAEDTAVYYCARSDGSAAGFLGYWGQGTLVTVSSASTKGPSVFPLAPSSKSTSGGTAALGCLVKDYFPEPVTVSWNSGALTSGVHTFPAVLQSSGLYSLSSVVTVPSSSLGTQTYICNVNHKPSNTKVDKRVEPKSCDKTHTCPPCPAPEFQGGPSVFLFPPKPKDTLYITREPEVTCVVVDVSHEDPEVKFNWYVDGVEVHNAKTKPREEQYNSTYRVVSVLTVLHQDWLNGKEYKCKVSNKALPAGIEKTISKAKGQPREPQVYTLPPSREEMTKNQVSLTCLVKGFYPSDIAVEWESNGQPENNYKTTPPVLDSDGSFFLYSKLTVDKSRWQQGNVFSCSVMHEALHNHYTQKSLSLSPGK
light: B3 light
notes: Full IgG1; also called Ab4 FQG-YTE
- Kd [1]: 350 nM
- binding result [2]: no binding
- binding result [3]: no binding
- binding result [4]: no binding
- binding result [5]: no binding
- binding result [6]: no binding
- binding result (Human C1q): no binding

B6: Ab4 (anti-C5a antibody 1B8) with FQQ-YTE variant IgG1 Fc domain (antibody)
heavy: B4 heavy with K325Q, G334P
light: B3 light
notes: Full IgG1; also called Ab4 FQQ-YTE
- Kd [1]: 290 nM
- binding result [2]: no binding
- binding result [3]: no binding
- binding result [4]: no binding
- binding result [5]: no binding
- binding result [6]: no binding
- binding result (Human C1q): no binding

B7: Ab4 (anti-C5a antibody 1B8) with FAQ-YTE variant IgG1 Fc domain (antibody)
heavy: B4 heavy with Q238A, K325Q, G334P
light: B3 light
notes: Full IgG1; also called Ab4 FAQ-YTE
- binding result [2]: no binding
- binding result [3]: no binding
- binding result [4]: no binding
- binding result [5]: no binding
- binding result [6]: no binding
- binding result (Human C1q): no binding

Further binders by falling Kd [1], results first:

- Kd [1]: 270 nM
B5: Ab4 (anti-C5a antibody 1B8) with FES-YTE variant IgG1 Fc domain (antibody)
heavy: B4 heavy with Q238E, G334S
light: B3 light
notes: Full IgG1; also called Ab4 FES-YTE

- Kd [1]: 270 nM
- Kd [2]: 820 nM
- Kd [3]: 2800 nM
- Kd [4]: 1900 nM
- Kd [5]: 3600 nM
- Kd [6]: 43 nM
- Kd (Human C1q): 400 nM
B8: Ab4 (anti-C5a antibody 1B8) with YTE variant IgG1 Fc domain (antibody)
heavy: B4 heavy with F237L, Q238L, G334P
light: B3 light
notes: Full IgG1; also called Ab4 YTE

- Kd [1]: 235 nM
- Kd [2]: 800 nM
- Kd [3]: 6100 nM
- Kd [4]: 2800 nM
- Kd [5]: 1600 nM
- Kd [6]: 140 nM
- Kd (Human C1q): 70 nM
B2: Ab3 (anti-CD20 antibody HB20.3) with YTE variant IgG1 Fc domain (antibody)
heavy: QVQLQQPGAELVKPGASVKMSCKASGFTFTNYNMHWLKQTPGQGLEWIGAIYPENGDTSYNQKFKGKATLTADKASSTAYMHLSSLTSEDSAVYFCARFYYYGSYYGAMDYWGQGTSVTVSSASTKGPSVFPLAPSSKSTSGGTAALGCLVKDYFPEPVTVSWNSGALTSGVHTFPAVLQSSGLYSLSSVVTVPSSSLGTQTYICNVNHKPSNTKVDKRVEPKSCDKTHTCPPCPAPELLGGPSVFLFPPKPKDTLYITREPEVTCVVVDVSHEDPEVKFNWYVDGVEVHNAKTKPREEQYNSTYRVVSVLTVLHQDWLNGKEYKCKVSNKALPAPIEKTISKAKGQPREPQVYTLPPSREEMTKNQVSLTCLVKGFYPSDIAVEWESNGQPENNYKTTPPVLDSDGSFFLYSKLTVDKSRWQQGNVFSCSVMHEALHNHYTQKSLSLSPGK
light: B1 light
notes: Full IgG1; also called Ab3 YTE
